# Reference: article PMC6135047
# Target: His-ToxR (Vibrio parahaemolyticus RIMD 2210633?) (UniProt Q05938)
# Assay: DNase I footprinting
# UniProt Q05938, sequence (Q05938 1-176): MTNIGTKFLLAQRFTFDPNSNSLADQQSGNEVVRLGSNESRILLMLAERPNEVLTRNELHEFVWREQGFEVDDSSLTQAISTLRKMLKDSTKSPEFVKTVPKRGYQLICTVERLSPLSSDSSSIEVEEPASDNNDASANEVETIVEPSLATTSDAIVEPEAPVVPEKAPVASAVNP
row,Sequence,binding
1,CAGATTGCTGAATATCGGTGATGTATGAGAAATCGTTCAATGTAAAAAATATGCGCAATGATTGATGCTGGGAGAATAGAAAGGATGAGGTGGTATTTATAGTGAATATTGGTCGGGAGTTTTTAGAAAACTGAAAACGCCCTAAAAAAACACGTCTGATTTTGACAGCCTGATAAAAACGCACTTCATATAATTCGCTTGTATTGTACGAAAGGAGTGCAAGTGAATGAGTATTATCAAT (double strand) [VP1667 (vopN) footprint probe],binds
2,TTTCAGGGACGACTTTGTGATTTAGCCCCATGAAATCACCACACTAAGATGTCATTTAACATGTGGCTGACAAATGTAAATTCAAGGTCAATATTGCTAAAAACGGTGTTTTTTTAGAAAAATTTAATTATCCTACCCCCCTAAAAGCATCTAAAACGTCGCGTATCTCCCATGCGCAAACGTAATTTTGTGATATAAATCACCATAATTACAACATCATCCATCTAAGAAGAACTAA (double strand) [toxR footprint probe],binds
3,CAGAGTGACCCAGAGCCGTTTTGATGCTGTTATTTTTCATCATTCGGCGCGATTAATATGCTAAAGATGGTCGGATTTTTTTCGTTTTAAGACGTTTGAAAACAACAAAGCTCAGCAATGTGCTGAGCTTTGTGTTCGATTGATTTGGCGGTGATGCCCTACTCTGGTG (double strand) [VP1687 footprint probe],binds
